Paper PMC1874611 (Nucleic Acids Research, 2007)

Key:
[1] = target: T1, chimeric GST-CycT1 (GST-T1; aa 1–292) (UniProt O60563 1-292); assay: pull-down
[2] = target: T1, chimeric GST-CycT1 (GST-T1; aa 1–292); assay: stopped-flow fluorescence

T1 sequence (O60563 1-292, change not shown): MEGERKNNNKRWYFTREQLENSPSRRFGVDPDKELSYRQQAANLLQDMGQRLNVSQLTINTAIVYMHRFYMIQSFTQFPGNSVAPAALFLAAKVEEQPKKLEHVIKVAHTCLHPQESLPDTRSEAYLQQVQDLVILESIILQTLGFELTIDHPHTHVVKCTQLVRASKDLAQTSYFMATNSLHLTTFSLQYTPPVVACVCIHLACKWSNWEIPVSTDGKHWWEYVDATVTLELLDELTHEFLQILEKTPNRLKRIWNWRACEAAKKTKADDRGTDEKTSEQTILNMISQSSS

B1: CycT1-binding domain of HEXIM1 (HEXIM1-TBD; aa 255–359) (domain or fragment)
chain: MGGDGSEFLQRDFSETYERYHTESLQNMSKQELIKEYLELEKCLSRMEDENNRLRLESKRLGGDDARVRELELELDRLRAENLQLLTENELHRQQERAPLSKFGD
binding result [1]: binds

B2: fluorescently labeled HEXIM1-TBD (HEXIM1-TBD*) (domain or fragment)
chain: B1 chain
modifications: dansyl-based fluorophore (position not given)
binding result [2]: binds
